{"source": "paper PMC8095197", "about": "(bioRxiv, 2021)", "biological_target": "SARS-CoV-2 spike (SARS-CoV-2, reference (Wuhan-Hu-1) …, UniProt P0DTC2)", "experiment": "ELISA"}
{"binder": "DH1047 IgG (antibody, V domains shown) VH: QVQLVQSGAEVKKPGASVQVSCQASANTFTNHYIHWVRQAPGQGLEWMGIIYPTGGNTIYAQGFQGRVTMTRDTSLNTIYLELSSLRSEDTAVYYCARDVRVDDSWSGYDLLSGGTYFDYWGQGTLVTVSS VL: not shown", "values": [{"measurement": "binding result", "value": "binds"}]}
